# Source: article PMC4402148
# Target: DDX3X D1 WT (Homo sapiens, UniProt O00571 135-407)
# Assay: NMR CSP
# Chain of DDX3X D1 WT (O00571 135-407): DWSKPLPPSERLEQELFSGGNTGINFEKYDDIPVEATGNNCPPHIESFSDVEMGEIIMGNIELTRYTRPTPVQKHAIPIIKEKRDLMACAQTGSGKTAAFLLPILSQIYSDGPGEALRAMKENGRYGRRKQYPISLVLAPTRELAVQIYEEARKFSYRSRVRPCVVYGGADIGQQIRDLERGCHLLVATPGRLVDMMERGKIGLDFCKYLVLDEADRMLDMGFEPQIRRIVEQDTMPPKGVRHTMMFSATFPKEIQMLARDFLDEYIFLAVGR
binder,measurement,value
blunt 14-mer dsRNA (NMR) (dsRNA) RNA 1: GGGCGGGCCCGCCC RNA 2: GGGCGGGCCCGCCC,binding result,binds
